Molecular target: Insulin receptor of C2C12 mouse myoblasts (mouse, UniProt P15208 28-1372)
Assay: cell-based or functional assay

Insulin receptor of C2C12 mouse myoblasts, sequence (P15208 28-1372): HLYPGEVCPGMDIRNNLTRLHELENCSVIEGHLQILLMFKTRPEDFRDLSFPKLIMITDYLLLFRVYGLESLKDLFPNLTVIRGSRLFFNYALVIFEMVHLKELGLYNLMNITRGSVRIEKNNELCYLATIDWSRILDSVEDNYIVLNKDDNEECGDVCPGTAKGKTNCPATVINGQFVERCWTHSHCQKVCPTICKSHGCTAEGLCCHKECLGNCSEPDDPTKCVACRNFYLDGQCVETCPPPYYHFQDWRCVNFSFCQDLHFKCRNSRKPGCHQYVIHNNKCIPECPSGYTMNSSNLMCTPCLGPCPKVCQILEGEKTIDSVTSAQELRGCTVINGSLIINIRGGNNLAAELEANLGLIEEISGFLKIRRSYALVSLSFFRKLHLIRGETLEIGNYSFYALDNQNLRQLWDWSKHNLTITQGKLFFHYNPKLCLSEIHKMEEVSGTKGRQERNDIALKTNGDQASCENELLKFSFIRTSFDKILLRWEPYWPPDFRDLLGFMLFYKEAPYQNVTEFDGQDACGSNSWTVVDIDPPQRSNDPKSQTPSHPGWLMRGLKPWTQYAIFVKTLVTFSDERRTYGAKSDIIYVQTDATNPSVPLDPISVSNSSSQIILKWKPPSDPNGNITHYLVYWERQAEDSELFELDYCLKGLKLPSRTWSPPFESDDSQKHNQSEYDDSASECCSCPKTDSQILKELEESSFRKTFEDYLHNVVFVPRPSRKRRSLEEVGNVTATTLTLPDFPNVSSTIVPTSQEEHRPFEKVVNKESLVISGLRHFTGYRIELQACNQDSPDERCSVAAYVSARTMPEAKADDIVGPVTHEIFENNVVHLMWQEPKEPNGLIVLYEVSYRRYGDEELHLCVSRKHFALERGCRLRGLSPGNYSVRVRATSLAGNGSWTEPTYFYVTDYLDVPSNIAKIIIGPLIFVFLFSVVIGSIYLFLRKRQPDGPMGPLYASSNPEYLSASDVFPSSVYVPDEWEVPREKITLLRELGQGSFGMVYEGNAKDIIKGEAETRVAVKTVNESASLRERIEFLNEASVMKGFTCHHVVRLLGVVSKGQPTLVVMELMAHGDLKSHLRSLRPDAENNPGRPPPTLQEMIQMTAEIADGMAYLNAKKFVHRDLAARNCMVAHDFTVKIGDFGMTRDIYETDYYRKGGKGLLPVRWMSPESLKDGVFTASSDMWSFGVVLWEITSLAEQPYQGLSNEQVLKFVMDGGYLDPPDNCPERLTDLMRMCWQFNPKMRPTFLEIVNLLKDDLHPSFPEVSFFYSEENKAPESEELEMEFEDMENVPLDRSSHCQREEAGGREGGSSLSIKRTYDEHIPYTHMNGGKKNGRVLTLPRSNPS

B1: Fusion protein 1 (insulin analog 1 + L2 + IgG2 Fc1) (Fc fusion)
chain: FVNQHLCGEHLVEALYLVCGERGFHYGGGGGGSGGGGGIVEQCCESICSLEQLENYCGGGGGQGGGGQGGGGQGGGGGECPPCPAPPVAGPSVFLFPPKPKDTLMISRTPEVTCVVVDVSHEDPEVQFNWYVDGVEVHNAKTKPREEQFNSTFRVVSVLTVVHQDWLNGKEYKCKVSNKGLPAPIEKTISKTKGQPREPQVYTLPPSREEMTKNQVSLTCLVKGFYPSDIAVEWESNGQPENNYKTTPPMLDSDGSFFLYSKLTVDKSRWQQGNVFSCSVMHEALHNHYTQKSLSLSPG
  AKT phosphorylation activity (EC50): 490 nM
